For one substance, Kd results are on record in article PMC12780147.

pKd: −log10 of the molar value.

One experiment concerns the target CD127 (IL-7Rα) (UniProt P16871). Nature of the experiment: BLI.
Experiment [1] has as its target TGF-β1 (not stated (human TGF-β1 stated for the reporter assay only)). Nature of the experiment: BLI.

CD127 (IL-7Rα), sequence (P16871 21-459): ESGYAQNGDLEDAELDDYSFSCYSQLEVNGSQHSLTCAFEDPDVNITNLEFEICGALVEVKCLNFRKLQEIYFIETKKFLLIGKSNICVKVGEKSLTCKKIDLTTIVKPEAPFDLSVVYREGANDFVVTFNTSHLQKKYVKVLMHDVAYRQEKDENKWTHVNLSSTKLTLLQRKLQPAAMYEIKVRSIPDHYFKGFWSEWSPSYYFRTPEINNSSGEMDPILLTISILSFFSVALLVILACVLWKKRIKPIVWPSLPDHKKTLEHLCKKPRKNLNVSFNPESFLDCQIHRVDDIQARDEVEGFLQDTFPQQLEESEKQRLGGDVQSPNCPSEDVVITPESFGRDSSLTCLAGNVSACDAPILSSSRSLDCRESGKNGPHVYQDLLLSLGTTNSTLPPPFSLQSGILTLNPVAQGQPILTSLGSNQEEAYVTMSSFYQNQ

On to “rhIL-7-hyFc-sTBRII (IL7-TBRII), bifunctional fusion protein (from UniProt P13232 26-177; P37173 23-166) (Fc fusion)”, for which the figures for the pKd (in the experiment with CD127 (IL-7Rα); in experiment [1]) were 8.16 and 9.84, respectively.
